Measurements: the supplement of paper PMC10567573

B1: RHOBTB2 (parent)
chain: HHHHGRDFLLRAASFDVCESVDEA
B2: ZNF263 (parent)
chain: KPYKCTLCGENFSHRSNLIRHQRI

Variants of: B1
Assay: protein stability index of a GFP-peptide fusion (GPS, HEK-293T) (PSI 1-6); higher = more stable
Settings: c terminus: a fixed tail appended
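Note: lentivirally expressed fusions sorted by FACS into six bins by GFP to DsRed ratio, PSI derived from sequencing read proportions per bin multiplied by bin number.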

Protein stability index, by site and new letter:
D7: K 3.85 | F 2.06 | L 1.82 | S 3.17 | A 2.97 | I 1.99 | C 1.92 | T 2.92 | N 3.25 | V 2.87 | Q 3.18 | Y 2.04 | G 3.34 | W 2.29 | M 1.79 | P 3.31 | R 3.16 | H 2.34 | E 3.8
G5: I 3.27 | C 2.63 | Y 2.33 | A 3.83 | E 4.42 | S 4.61 | H 4.34 | L 2.6 | W 2.21 | N 3.95 | P 4.44 | F 1.6 | M 3.42 | V 3.37 | T 4.15 | Q 4.21 | R 4.3 | D 4.86 | K 4.2
H3: A 3.58 | Q 3.87 | E 4.71 | G 3.9 | K 3.04 | V 3.65 | D 4.67 | S 3.83 | M 3.4 | N 4.44 | I 3.52 | W 2.43 | R 2.76 | T 3.58 | Y 3.51 | L 3.62 | C 2.92 | F 3.33 | P 3.56
R6: Q 4.37 | M 3.49 | D 4.61 | A 4.33 | V 2.63 | T 4.2 | P 4.19 | W 2.55 | I 2.12 | K 4.5 | G 4.7 | E 5.07 | N 4.59 | Y 3 | H 4.41 | C 3.51 | S 3.85 | L 3.81 | F 2.8
H4: V 4.02 | R 3.62 | Q 4.11 | I 3.83 | D 4.12 | N 4.15 | K 3.25 | L 3.65 | W 2.31 | T 3.94 | E 3.96 | F 3.38 | C 2.67 | Y 3.3 | A 3.67 | G 3.73 | S 4.15 | M 3.61 | P 4.59
L9: F 3.2 | H 5.1 | C 4.48 | G 4.6 | A 4.98 | K 4.35 | I 4.06 | E 4.89 | D 5.28
H2: F 3.69 | S 2.62 | D 4.67 | E 4.75 | Y 4.16 | R 3.9 | I 3.92 | W 3.35 | V 3.46 | N 4.52 | A 4.04 | M 3.96 | K 4.67 | L 3.93 | Q 4.04 | C 3.43 | G 3.72 | T 1.8 | P 4.49
H1: E 4.42 | A 4.49 | N 4.53 | R 3.92 | V 3.21 | Y 3.84 | C 4.02 | F 1.48 | W 3.36 | T 4.59 | K 4.35 | S 4.34 | G 4.55 | D 4.88 | L 3.74 | I 3.45 | P 4.71 | Q 4.26 | M 4.17
F8: Q 5.04 | H 5.06 | A 5.04 | L 4.45 | R 4.74 | P 5.21 | Y 3.57 | M 4.86 | G 4.74 | S 4.37 | C 4.74 | D 5.15 | K 4.61 | V 4.66 | T 4.28 | W 3.28 | I 4.19 | N 5.33 | E 4.89

Variants of: B2
Assay: as above
Settings: c terminus: a fixed tail appended

Protein stability index of substitutions, site by site:
I19: A 2.57 | E 2.89 | P 2.11 | K 2.65 | L 2.32 | C 4.18 | H 2.33 | G 3.08
R15: M 2.85 | V 2.88 | E 2.69 | C 2.34 | S 1.38 | G 2.08
F12: T 1.66 | W 2.12 | E 1.93 | R 1.54 | C 2.71 | M 2.01 | Q 2.18
Y3: P 1.85 | C 2.47 | Q 2.14 | D 1.84 | R 3.54
C5: S 2.43 | N 2.41 | W 1.61 | E 2.19 | Q 3.12 | H 2.34 | I 1.75
N11: H 3.33 | P 1.8 | Q 2.62
P2: K 2.92 | N 2.49 | L 2.53 | T 2.53 | G 2.77 | F 2.12
N17: P 1.87 | H 3.64 | R 2.64 | Q 2.9 | W 2.07 | V 1.7 | I 2.93 | C 2.47 | D 3.88 | T 2.65 | M 2.87 | L 2.77 | G 3.16
S16: R 3.92 | E 2.53 | K 3.28 | Y 2.91 | Q 2.81 | T 1.65 | D 2.74 | N 2.13 | C 2.41
H21: A 2.13 | N 3.21 | C 2.6 | Y 2.46 | G 1.83
G9: W 1.62 | C 2.16 | Y 2.61 | R 2.5 | N 2.36 | P 1.67 | K 2.05 | H 1.81 | V 2.14
R20: S 1.8 | D 2.84 | M 2.22 | A 2.43 | C 2.45 | V 1.99 | W 1.76
S13: T 2.13 | P 2.45 | F 2.26 | K 2.38 | W 2.53 | Q 2.84 | Y 2.89
R23: T 1.88 | C 4.48 | L 2.82 | D 2.73 | K 3.08 | I 2.48 | F 1.66 | S 2.28 | N 2.63
H14: E 2.95 | Y 3.16 | G 1.97 | M 2.55 | L 2.73 | N 2.56 | V 2.43 | T 2.75 | P 1.85 | F 2.23 | C 2.68
L18: A 2.35 | Q 2.42 | F 2.56 | K 2.19 | H 2.93
E10: C 1.94 | A 2.82 | N 2.24 | Q 2.98 | K 3.4 | Y 1.69 | V 2.56 | M 2.67 | F 2.36 | T 2.06 | W 2.35
K4: T 2.52 | W 2.35 | E 2.35 | Q 2.48 | N 1.94 | Y 2.16 | M 2.23 | S 1.9 | R 2.54 | I 2.87
Q22: E 1.66 | I 2.72 | R 3.17 | Y 2.91 | V 2.29 | D 2.01
K1: A 2.19 | W 1.92 | L 2.25 | M 2.65 | V 1.56 | P 3.08 | D 3.07 | C 2.67
I24: T 2.64 | G 2.75 | D 3.09 | L 2.3 | S 2.53 | E 3.68 | N 3.11
L7: D 3.02 | G 2.18 | S 2.68 | V 3.37 | W 2.69
T6: P 2.42 | F 2.61
C8: F 2.11 | T 2.69 | V 2.47 | M 1.83 | A 2.34 | Q 2.74 | I 2.58
